Here are results for one substance from patent US20120328616A1.

This assay concerns the target human FGFR1c/human β-Klotho complex (FGF21 receptor) (human) (UniProt P11362). In words: cell-based or functional assay.

The substance human FGF21 (ligand) yielded an EC50, pERK Human Adipocyte Assay of 0.623 nM.
